These results are taken from patent US20190203174A1.

The target of test [1] is PE-labeled DR1 tetramers loaded with FVIII-2191-2220 (human) (UniProt P01903). In words: flow cytometry, DR1 tetramer staining of transduced CD4 T cells. (In general: A flow cytometer gives signals particle by particle.)
Test [2] has the same target. The test can be described thus: flow cytometry, PE-labeled DR1 tetramer staining of peptide-expanded transduced T effectors.
The target in test [3] is FVIII-2191-2220 presented on HLA-DR1 by irradiated DR1-PBMCs (human). In words: cell-based or functional assay.
The target in test [4] is PE-labeled DR1 tetramers loaded with FVIII-2191-2220 (human) (UniProt P01903). In words: flow cytometry, DR1 tetramer staining of transduced naïve CD4 T cells.

B1: FVIII C2-specific human T cell receptor (TCR17195) (TCR)
chain: RQVARVIVFLTLSTLSLAKTTQPISMDSYEGQEVNITCSHNNIATNDYITWYQQFPSQGPRFIIQGYKTKVTNEVASLFIPADRKSSTLSLPRVSLSDTAVYYCLVGDAPNSGNTPLVFGKGTRLSVIANIQNPDPAVYQLRDSKSSDKSVCLFTDFDSQTNVSQSKDSDVYITDKTVLDMRSMDFKSNSAVAWSNKSDFACANAFNNSIIPEDTFFPSPESSCDVKLVEKSFETDTNLNFQNLSVIGFRILLLKVAGFNLLMTLRLWSSRAKRGSGATNFSLLKQAGDVEENPGPMLLLLLLLGPGSGLGAVVSQHPSRVICKSGTSVKIECRSLDFQATTMFWYRQFPKKSLMLMATSNEGSKATYEQGVEKDKFLINHASLTLSTLTVTSAQPEDSSFYICSAHTRANYGYTFGSGTRLTVVEDLNKVFPPEVAVFEPSEAEISHTQKATLVCLATGFFPDHVELSWWVNGKEVHSGVSTDPQPLKEQPALNDSRYCLSSRLRVSATFWQNPRNHFRCQVQFYGLSENDEWTQDRAKPVTQIVSAEAWGRADCGFTSVSYQQGVLSATILYEILLGKATLYAVLVSALVLMAMVKRKDF
With B1, the fold tetramer staining intensity over non-specific tetramer staining in test [1] is > 10 fold. Also, in test [2], the percent tetramer+ came to 24%. Also, in test [3], the expansion of GFP cells against culture with pOVA amounted to 50 fold; the proliferation of GFP cells (dye dilution, 4 days) was determined as 100%; the proportion of GFP cells after culture with FVIII-2191-2220 fell in the range of 61 to 81%. In test [4], the percent tetramer+ of the total CD4 population was determined as 0.2% and the percent tetramer+ of the transduced cells was < 5%.
